Consider 3 molecules from US20140274782A1, “AFFINITY REAGENTS AND METHODS FOR DETECTION, PURIFICATION, AND PROTEOMIC ANALYSIS OF METHYLATED PROTEINS” (The Board of Trustees of the Leland Stanford Junior …, priority 2013, published 2014).

Experiment [1] has as its target T1, G9a and GLP (Homo sapiens, UniProt Q96KQ7+Q9H9B1).
T1 sequence (Q96KQ7 2-1210 limits assumed): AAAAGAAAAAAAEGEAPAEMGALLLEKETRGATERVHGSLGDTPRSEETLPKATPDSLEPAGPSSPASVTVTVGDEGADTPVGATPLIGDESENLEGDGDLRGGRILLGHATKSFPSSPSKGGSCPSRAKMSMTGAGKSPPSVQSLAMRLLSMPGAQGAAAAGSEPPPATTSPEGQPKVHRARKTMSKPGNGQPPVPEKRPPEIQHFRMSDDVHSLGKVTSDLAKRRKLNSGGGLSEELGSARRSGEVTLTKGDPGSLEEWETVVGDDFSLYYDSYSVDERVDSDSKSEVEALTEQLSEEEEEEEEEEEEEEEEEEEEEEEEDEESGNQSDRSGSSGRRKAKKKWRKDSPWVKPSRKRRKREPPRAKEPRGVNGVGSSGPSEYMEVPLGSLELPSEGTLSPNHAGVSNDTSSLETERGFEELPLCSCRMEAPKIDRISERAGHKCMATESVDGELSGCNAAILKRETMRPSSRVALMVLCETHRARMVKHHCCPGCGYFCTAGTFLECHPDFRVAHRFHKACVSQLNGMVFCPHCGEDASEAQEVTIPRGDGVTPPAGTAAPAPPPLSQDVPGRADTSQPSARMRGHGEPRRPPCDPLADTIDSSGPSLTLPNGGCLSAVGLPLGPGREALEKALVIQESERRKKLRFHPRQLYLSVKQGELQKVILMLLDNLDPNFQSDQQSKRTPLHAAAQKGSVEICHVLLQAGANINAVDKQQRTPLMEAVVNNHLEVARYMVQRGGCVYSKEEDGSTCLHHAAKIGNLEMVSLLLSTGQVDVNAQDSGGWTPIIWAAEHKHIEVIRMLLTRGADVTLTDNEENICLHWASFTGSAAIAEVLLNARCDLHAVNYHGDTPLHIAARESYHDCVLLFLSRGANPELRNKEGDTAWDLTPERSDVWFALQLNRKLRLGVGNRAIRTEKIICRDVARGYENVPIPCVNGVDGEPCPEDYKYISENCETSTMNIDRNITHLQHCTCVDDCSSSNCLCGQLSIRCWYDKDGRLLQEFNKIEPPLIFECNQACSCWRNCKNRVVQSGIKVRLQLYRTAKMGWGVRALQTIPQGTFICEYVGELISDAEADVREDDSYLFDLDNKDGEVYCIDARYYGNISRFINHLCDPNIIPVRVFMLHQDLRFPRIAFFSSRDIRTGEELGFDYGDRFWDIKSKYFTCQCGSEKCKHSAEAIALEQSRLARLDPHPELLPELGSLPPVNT
T1 sequence (Q9H9B1 2-1298 limits assumed): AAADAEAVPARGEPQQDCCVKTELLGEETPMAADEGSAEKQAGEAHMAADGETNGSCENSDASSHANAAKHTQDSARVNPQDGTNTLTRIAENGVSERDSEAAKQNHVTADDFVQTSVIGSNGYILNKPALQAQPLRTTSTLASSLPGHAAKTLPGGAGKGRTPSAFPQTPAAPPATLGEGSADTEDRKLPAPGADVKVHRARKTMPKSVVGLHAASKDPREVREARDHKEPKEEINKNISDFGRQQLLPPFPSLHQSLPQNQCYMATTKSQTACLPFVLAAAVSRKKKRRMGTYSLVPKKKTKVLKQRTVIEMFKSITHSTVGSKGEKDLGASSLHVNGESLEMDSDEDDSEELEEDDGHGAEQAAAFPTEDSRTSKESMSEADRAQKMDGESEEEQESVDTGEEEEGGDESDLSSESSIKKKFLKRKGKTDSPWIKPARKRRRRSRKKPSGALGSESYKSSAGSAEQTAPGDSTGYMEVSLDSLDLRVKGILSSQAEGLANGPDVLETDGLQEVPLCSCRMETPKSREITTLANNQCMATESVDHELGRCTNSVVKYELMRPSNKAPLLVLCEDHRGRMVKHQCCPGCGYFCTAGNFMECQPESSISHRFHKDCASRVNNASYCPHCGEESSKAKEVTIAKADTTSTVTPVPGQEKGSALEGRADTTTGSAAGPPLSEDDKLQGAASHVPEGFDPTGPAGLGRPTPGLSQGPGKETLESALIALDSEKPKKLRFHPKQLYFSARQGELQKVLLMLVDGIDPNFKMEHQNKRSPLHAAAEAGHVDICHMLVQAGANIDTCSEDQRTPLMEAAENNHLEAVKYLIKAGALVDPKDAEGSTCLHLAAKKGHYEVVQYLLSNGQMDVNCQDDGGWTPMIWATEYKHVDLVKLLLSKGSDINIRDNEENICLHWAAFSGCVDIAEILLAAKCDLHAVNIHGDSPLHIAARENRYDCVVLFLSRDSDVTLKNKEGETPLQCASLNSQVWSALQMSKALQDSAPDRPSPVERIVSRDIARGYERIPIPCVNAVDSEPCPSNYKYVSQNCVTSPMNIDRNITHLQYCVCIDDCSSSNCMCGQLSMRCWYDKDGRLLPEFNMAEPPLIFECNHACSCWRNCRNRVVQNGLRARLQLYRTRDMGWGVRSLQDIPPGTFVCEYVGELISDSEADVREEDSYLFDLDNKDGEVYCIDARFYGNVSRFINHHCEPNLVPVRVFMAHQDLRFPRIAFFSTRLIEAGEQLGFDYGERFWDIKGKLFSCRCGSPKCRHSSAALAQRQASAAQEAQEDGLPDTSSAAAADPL
The experiment in a line: Triple SILAC pull-down after UNC0638 treatment of 293T cells, DMSO/UNC0638 ratio of protein captured by 3×MBT.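 Also: mass spectrometry (Q-Exactive) SILAC quantitation, DMSO/UNC0638 ratio computed after subtracting 3×MBTD355N mutant pull-down background, only proteins with at least twofold 3×MBT over mutant signal considered.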 The class given is cell-based. Also on record: cells were treated for 24 hours with UNC0638 at 2.5 μM or DMSO vehicle control; endogenous in cells; host or cells: HEK 293T.

The subject of another experiment is 3×MBT domain of L3MBTL1. The experiment in a line: Triple SILAC pull-down, 3xMBT/3xMBTD355N ratio (cytoplasmic, nuclear and chromatin fractions of 293T cells).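 Also: proteins quantified with MaxQuant, requiring at least two unique peptides and quantification in both label directions, normalized to the mean of proteins from a digested loading control.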 In kind it is binding, human. Conditions: SILAC ratio.
Experiment [2] addresses T1, G9a and GLP. The experiment in a line: Triple SILAC pull-down after UNC0638 treatment of 293T cells, DMSO/UNC0638 ratio of protein captured by 3×MBT.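 Also: mass spectrometry (Q-Exactive) SILAC quantitation, DMSO/UNC0638 ratio computed after subtracting 3×MBTD355N mutant pull-down background, only proteins with at least twofold 3×MBT over mutant signal considered.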 The class given is cell-based. On the set-up: endogenous in cells; host or cells: HEK 293T.

B1: ACIN1: a known G9a substrate (protein, UniProt Q9UKV3 1-1341, looked up)
Apoptotic chromatin …: MWRRKHPRTSGGTRGVLSGNRGVEYGSGRGHLGTFEGRWRKLPKMPEAVGTDPSTSRKMAELEEVTLDGKPLQALRVTDLKAALEQRGLAKSGQKSALVKRLKGALMLENLQKHSTPHAAFQPNSQIGEEMSQNSFIKQYLEKQQELLRQRLEREAREAAELEEASAESEDEMIHPEGVASLLPPDFQSSLERPELELSRHSPRKSSSISEEKGDSDDEKPRKGERRSSRVRQARAAKLSEGSQPAEEEEDQETPSRNLRVRADRNLKTEEEEEEEEEEEEDDEEEEGDDEGQKSREAPILKEFKEEGEEIPRVKPEEMMDERPKTRSQEQEVLERGGRFTRSQEEARKSHLARQQQEKEMKTTSPLEEEEREIKSSQGLKEKSKSPSPPRLTEDRKKASLVALPEQTASEEETPPPLLTKEASSPPPHPQLHSEEEIEPMEGPAPAVLIQLSPPNTDADTRELLVSQHTVQLVGGLSPLSSPSDTKAESPAEKVPEESVLPLVQKSTLADYSAQKDLEPESDRSAQPLPLKIEELALAKGITEECLKQPSLEQKEGRRASHTLLPSHRLKQSADSSSSRSSSSSSSSSRSRSRSPDSSGSRSHSPLRSKQRDVAQARTHANPRGRPKMGSRSTSESRSRSRSRSRSASSNSRKSLSPGVSRDSSTSYTETKDPSSGQEVATPPVPQLQVCEPKERTSTSSSSVQARRLSQPESAEKHVTQRLQPERGSPKKCEAEEAEPPAATQPQTSETQTSHLPESERIHHTVEEKEEVTMDTSENRPENDVPEPPMPIADQVSNDDRPEGSVEDEEKKESSLPKSFKRKISVVSATKGVPAGNSDTEGGQPGRKRRWGASTATTQKKPSISITTESLKSLIPDIKPLAGQEAVVDLHADDSRISEDETERNGDDGTHDKGLKICRTVTQVVPAEGQENGQREEEEEEKEPEAEPPVPPQVSVEVALPPPAEHEVKKVTLGDTLTRRSISQQKSGVSITIDDPVRTAQVPSPPRGKISNIVHISNLVRPFTLGQLKELLGRTGTLVEEAFWIDKIKSHCFVTYSTVEEAVATRTALHGVKWPQSNPKFLCADYAEQDELDYHRGLLVDRPSETKTEEQGIPRPLHPPPPPPVQPPQHPRAEQREQERAVREQWAEREREMERRERTRSEREWDRDKVREGPRSRSRSRDRRRKERAKSKEKKSEKKEKAQEEPPAKLLDDLFRKTKAAPCIYWLPLTDSQIVQKEAERAERAKEREKRRKEQEEEEQKEREKEAERERNRQLEREKRREHSRERDRERERERERDRGDRDRDRERDRERGRERDRRDTKRHSRSRSRSTPVRDRGGRR
With B1, the “change in amount captured by 3×MBT following UNC0638 treatment” value with G9a and GLP [1] (293T cells) is on record as “decreased strongly”.

B2: XRN2 (protein, UniProt Q9H0D6 1-950, looked up)
5'-3' exoribonuclease 2: MGVPAFFRWLSRKYPSIIVNCVEEKPKECNGVKIPVDASKPNPNDVEFDNLYLDMNGIIHPCTHPEDKPAPKNEDEMMVAIFEYIDRLFSIVRPRRLLYMAIDGVAPRAKMNQQRSRRFRASKEGMEAAVEKQRVREEILAKGGFLPPEEIKERFDSNCITPGTEFMDNLAKCLRYYIADRLNNDPGWKNLTVILSDASAPGEGEHKIMDYIRRQRAQPNHDPNTHHCLCGADADLIMLGLATHEPNFTIIREEFKPNKPKPCGLCNQFGHEVKDCEGLPREKKGKHDELADSLPCAEGEFIFLRLNVLREYLERELTMASLPFTFDVERSIDDWVFMCFFVGNDFLPHLPSLEIRENAIDRLVNIYKNVVHKTGGYLTESGYVNLQRVQMIMLAVGEVEDSIFKKRKDDEDSFRRRQKEKRKRMKRDQPAFTPSGILTPHALGSRNSPGSQVASNPRQAAYEMRMQNNSSPSISPNTSFTSDGSPSPLGGIKRKAEDSDSEPEPEDNVRLWEAGWKQRYYKNKFDVDAADEKFRRKVVQSYVEGLCWVLRYYYQGCASWKWYYPFHYAPFASDFEGIADMPSDFEKGTKPFKPLEQLMGVFPAASGNFLPPSWRKLMSDPDSSIIDFYPEDFAIDLNGKKYAWQGVALLPFVDERRLRAALEEVYPDLTPEETRRNSLGGDVLFVGKHHPLHDFILELYQTGSTEPVEVPPELCHGIQGKFSLDEEAILPDQIVCSPVPMLRDLTQNTVVSINFKDPQFAEDYIFKAVMLPGARKPAAVLKPSDWEKSSNGRQWKPQLGFNRDRRPVHLDQAAFRTLGHVMPRGSGTGIYSNAAPPPVTYQGNLYRPLLRGQAQIPKLMSNMRPQDSWRGPPPLFQQQRFDRGVGAEPLLPWNRMLQTQNAAFQPNQYQMLAGPGGYPPRRDDRGGRQGYPREGRKYPLPPPSGRYNWN
For B2, the “3xMBT/D355N UNC Heavy” value in the experiment on 3×MBT domain of L3MBTL1 (pull-down 3xMBT vs 3xMBTD355N, experiment with UNC0638 in heavy SILAC media) is 2.19 log base 2. The “3xMBT/D355N UNC Light” value in the experiment on 3×MBT domain of L3MBTL1 (pull-down 3xMBT vs 3xMBTD355N, experiment with UNC0638 in light SILAC media) stood at 2.76 log base 2. For the same molecule, the “Relative to UNC0638 UNC Heavy” value with G9a and GLP [2] (SILAC ratio DMSO/UNC0638 of protein pulled down with 3xMBT, UNC0638 in heavy SILAC media) worked out at 0.34 log base 2. In addition, in the experiment with G9a and GLP [2] (SILAC ratio DMSO/UNC0638 of protein pulled down with 3xMBT, UNC0638 in light SILAC media), the “Relative to UNC0638 UNC Light” value is 0.18 log base 2. Further, the “Relative to UNC0638 Average” value with G9a and GLP [2] (average of UNC Light and UNC Heavy experiments) turned out to be 0.26 log base 2.

B3: Splicing regulatory glutamine/lysine-rich protein 1 (protein, UniProt Q8N9Q2 1-155, looked up)
Protein SREK1IP1: MAVPGCNKDSVRAGCKKCGYPGHLTFECRNFLRVDPKRDIVLDVSSTSSEDSDEENEELNKLQALQEKRINEEEEKKKEKSKEKIKLKKKRKRSYSSSSTEEDTSKQKKQKYQKKEKKKEKKSKSKKGKHHKKEKKKRKKEKHSSTPNSSEFSRK
With B3, the “Protein Ratios 3xMBT/D355N” value in the experiment on 3×MBT domain of L3MBTL1 (pull-down by 3xMBT vs 3xMBTD355N, 293T cells) is given as 2.9. Besides, in the experiment with G9a and GLP [1] (SILAC ratio of protein captured by 3xMBT, 293T cells treated 24 hours with UNC0638 at 2.5 μM or DMSO), the “Protein Ratios DMSO/UNC0638” value came out at 4.4.
